# Source: patent US20030026781A1 (MITOKOR, published 2003)
# Experiments:
# Test in all cases: cell-based or functional assay
# [1] = target: purified F1-ATPase subcomplex isolated from bovine cardiac samples (bovine, UniProt P19483 44-553; P00829 47-528; P05631 26-297; P05630 23-168; P05632 2-51)
# [2] = target: F0-F1-ATPase in rat ASMPs (alkaline submitochondrial particles) prepared from rat cardiac samples (rat, UniProt P15999 44-553; P10719 47-529; P35435 1-272; P35434 23-168; P29418 2-51)
# [3] = target: purified F0-F1 ATPase complex isolated from bovine cardiac samples (bovine, UniProt P19483 44-553; P00829 47-528; P05631 26-297; P05630 23-168; P05632 2-51)
# [4] = target: mitochondrial ATP synthase (ETC Complex V) ATPase in rat liver submitochondrial particles (SMP) (rat, UniProt P15999 44-553; P10719 47-529; P35435 1-273; P35434 23-168; P29418 2-51)
"IC50, inhibition of ATP hydrolysis by purified F1-ATPase [1] [nM]","IC50, inhibition of F0-F1-ATPase in rat ASMPs [2] [nM]","IC50, inhibition of ATP hydrolysis by purified F0-F1-ATPase [3] [nM]","IC50, inhibition of oligomycin-sensitive ATPase in rat liver SMP [4] [nM]",Binder
~1390,–,–,–,"FGKREKAEEDRYFREKTREQLAALK [IF1(22-46) synthetic polypeptide, amino acids 22-46 of the mature form of rat IF1]"
~870,~2500,~180,–,"LAALKKHHEDEIDHHSK [IF1(42-58) synthetic polypeptide, amino acids 42-58 of the mature form of rat IF1]"

# Further lines, the binder ahead of its results:
Binder,"IC50, inhibition of ATP hydrolysis by purified F1-ATPase [1] [nM]","IC50, inhibition of F0-F1-ATPase in rat ASMPs [2] [nM]","IC50, inhibition of ATP hydrolysis by purified F0-F1-ATPase [3] [nM]","IC50, inhibition of oligomycin-sensitive ATPase in rat liver SMP [4] [nM]"
SIREAGGAFGKREKAEEDRYFREKTREQLA [IF1 peptide 14-43 (synthetic peptide fragment of rat IF1)],–,–,–,> 1500
SIREAGGAFGKREKAEEDRYFREKTREQL [IF1 peptide 14-42 (synthetic peptide fragment of rat IF1)],–,–,–,> 2600
